Results reported in PMC11734626.

Target: T7-tagged TanGIBLE (Tandem BAG6 domain I BUILD linked entity) (human) (UniProt P46379)
Test: co-IP

Substance: Flag-tagged IL-2 receptor α subunit without its signal sequence (Flag-IL-2Rα ΔSS) (domain or fragment)
- fold co-precipitated against BAG6 N200, with MG-132: 2.4 fold
- fold co-precipitated against BAG6 N200, without MG-132: 5.6 fold
